{"source": "the supplement of paper PMC10567573", "parents": {"B1": {"name": "SFRS1 (parent)", "chain": "RDIDLKNRRGGPPFAFVEFEDPRD"}}}
{"variants_of": "B1", "assay": "protein stability index of a GFP-peptide fusion (GPS, HEK-293T) (PSI 1-6); higher = more stable", "details": "c terminus: a fixed tail appended"}
{"variant": "ADIDLKNRRGGPPFAFVEFEDPRD", "note": "[R1A]", "protein stability index": 4.38}
{"variant": "HDIDLKNRRGGPPFAFVEFEDPRD", "note": "[R1H]", "protein stability index": 3.89}
{"variant": "CDIDLKNRRGGPPFAFVEFEDPRD", "note": "[R1C]", "protein stability index": 4.2}
{"variant": "NDIDLKNRRGGPPFAFVEFEDPRD", "note": "[R1N]", "protein stability index": 4.2}
{"variant": "DDIDLKNRRGGPPFAFVEFEDPRD", "note": "[R1D]", "protein stability index": 4.74}
{"variant": "RTIDLKNRRGGPPFAFVEFEDPRD", "note": "[D2T]", "protein stability index": 3.19}
{"variant": "RWIDLKNRRGGPPFAFVEFEDPRD", "note": "[D2W]", "protein stability index": 2.1}
{"variant": "RYIDLKNRRGGPPFAFVEFEDPRD", "note": "[D2Y]", "protein stability index": 2.76}
{"variant": "REIDLKNRRGGPPFAFVEFEDPRD", "note": "[D2E]", "protein stability index": 4.06}
{"variant": "RHIDLKNRRGGPPFAFVEFEDPRD", "note": "[D2H]", "protein stability index": 3.19}
{"variant": "RNIDLKNRRGGPPFAFVEFEDPRD", "note": "[D2N]", "protein stability index": 3.41}
{"variant": "RRIDLKNRRGGPPFAFVEFEDPRD", "note": "[D2R]", "protein stability index": 3.34}
{"variant": "RSIDLKNRRGGPPFAFVEFEDPRD", "note": "[D2S]", "protein stability index": 3.6}
{"variant": "RPIDLKNRRGGPPFAFVEFEDPRD", "note": "[D2P]", "protein stability index": 3.51}
{"variant": "RMIDLKNRRGGPPFAFVEFEDPRD", "note": "[D2M]", "protein stability index": 3.29}
{"variant": "RKIDLKNRRGGPPFAFVEFEDPRD", "note": "[D2K]", "protein stability index": 3.12}
{"variant": "RGIDLKNRRGGPPFAFVEFEDPRD", "note": "[D2G]", "protein stability index": 3.06}
{"variant": "RQIDLKNRRGGPPFAFVEFEDPRD", "note": "[D2Q]", "protein stability index": 3.25}
{"variant": "RIIDLKNRRGGPPFAFVEFEDPRD", "note": "[D2I]", "protein stability index": 2.68}
{"variant": "RFIDLKNRRGGPPFAFVEFEDPRD", "note": "[D2F]", "protein stability index": 2.91}
{"variant": "RVIDLKNRRGGPPFAFVEFEDPRD", "note": "[D2V]", "protein stability index": 3.28}
{"variant": "RLIDLKNRRGGPPFAFVEFEDPRD", "note": "[D2L]", "protein stability index": 2.62}
{"variant": "RCIDLKNRRGGPPFAFVEFEDPRD", "note": "[D2C]", "protein stability index": 3.1}
{"variant": "RAIDLKNRRGGPPFAFVEFEDPRD", "note": "[D2A]", "protein stability index": 2.59}
{"variant": "RDNDLKNRRGGPPFAFVEFEDPRD", "note": "[I3N]", "protein stability index": 3.81}
{"variant": "RDADLKNRRGGPPFAFVEFEDPRD", "note": "[I3A]", "protein stability index": 4.29}
{"variant": "RDKDLKNRRGGPPFAFVEFEDPRD", "note": "[I3K]", "protein stability index": 3.77}
{"variant": "RDHDLKNRRGGPPFAFVEFEDPRD", "note": "[I3H]", "protein stability index": 3.92}
{"variant": "RDFDLKNRRGGPPFAFVEFEDPRD", "note": "[I3F]", "protein stability index": 3.64}
{"variant": "RDQDLKNRRGGPPFAFVEFEDPRD", "note": "[I3Q]", "protein stability index": 4.1}
{"variant": "RDEDLKNRRGGPPFAFVEFEDPRD", "note": "[I3E]", "protein stability index": 4.71}
{"variant": "RDMDLKNRRGGPPFAFVEFEDPRD", "note": "[I3M]", "protein stability index": 3.57}
{"variant": "RDPDLKNRRGGPPFAFVEFEDPRD", "note": "[I3P]", "protein stability index": 3.98}
{"variant": "RDSDLKNRRGGPPFAFVEFEDPRD", "note": "[I3S]", "protein stability index": 3.45}
{"variant": "RDRDLKNRRGGPPFAFVEFEDPRD", "note": "[I3R]", "protein stability index": 3.6}
{"variant": "RDCDLKNRRGGPPFAFVEFEDPRD", "note": "[I3C]", "protein stability index": 3.75}
{"variant": "RDTDLKNRRGGPPFAFVEFEDPRD", "note": "[I3T]", "protein stability index": 3.73}
{"variant": "RDGDLKNRRGGPPFAFVEFEDPRD", "note": "[I3G]", "protein stability index": 4.15}
{"variant": "RDDDLKNRRGGPPFAFVEFEDPRD", "note": "[I3D]", "protein stability index": 4.57}
{"variant": "RDVDLKNRRGGPPFAFVEFEDPRD", "note": "[I3V]", "protein stability index": 3.79}
{"variant": "RDLDLKNRRGGPPFAFVEFEDPRD", "note": "[I3L]", "protein stability index": 3.81}
{"variant": "RDWDLKNRRGGPPFAFVEFEDPRD", "note": "[I3W]", "protein stability index": 3.95}
{"variant": "RDYDLKNRRGGPPFAFVEFEDPRD", "note": "[I3Y]", "protein stability index": 3.56}
{"variant": "RDIDLINRRGGPPFAFVEFEDPRD", "note": "[K6I]", "protein stability index": 3.69}
{"variant": "RDIDLANRRGGPPFAFVEFEDPRD", "note": "[K6A]", "protein stability index": 4.18}
{"variant": "RDIDLDNRRGGPPFAFVEFEDPRD", "note": "[K6D]", "protein stability index": 3.84}
{"variant": "RDIDLPNRRGGPPFAFVEFEDPRD", "note": "[K6P]", "protein stability index": 3.63}
{"variant": "RDIDLSNRRGGPPFAFVEFEDPRD", "note": "[K6S]", "protein stability index": 4.35}
{"variant": "RDIDLCNRRGGPPFAFVEFEDPRD", "note": "[K6C]", "protein stability index": 3.91}
{"variant": "RDIDLMNRRGGPPFAFVEFEDPRD", "note": "[K6M]", "protein stability index": 4.07}
{"variant": "RDIDLENRRGGPPFAFVEFEDPRD", "note": "[K6E]", "protein stability index": 4.28}
{"variant": "RDIDLFNRRGGPPFAFVEFEDPRD", "note": "[K6F]", "protein stability index": 3.61}
{"variant": "RDIDLRNRRGGPPFAFVEFEDPRD", "note": "[K6R]", "protein stability index": 3.47}
{"variant": "RDIDLHNRRGGPPFAFVEFEDPRD", "note": "[K6H]", "protein stability index": 4.71}
{"variant": "RDIDLQNRRGGPPFAFVEFEDPRD", "note": "[K6Q]", "protein stability index": 4.22}
{"variant": "RDIDLNNRRGGPPFAFVEFEDPRD", "note": "[K6N]", "protein stability index": 4.04}
{"variant": "RDIDLLNRRGGPPFAFVEFEDPRD", "note": "[K6L]", "protein stability index": 3.95}
{"variant": "RDIDLGNRRGGPPFAFVEFEDPRD", "note": "[K6G]", "protein stability index": 3.98}
{"variant": "RDIDTKNRRGGPPFAFVEFEDPRD", "note": "[L5T]", "protein stability index": 3.72}
{"variant": "RDIDNKNRRGGPPFAFVEFEDPRD", "note": "[L5N]", "protein stability index": 3.89}
{"variant": "RDIDCKNRRGGPPFAFVEFEDPRD", "note": "[L5C]", "protein stability index": 3.11}
{"variant": "RDIDWKNRRGGPPFAFVEFEDPRD", "note": "[L5W]", "protein stability index": 3.41}
{"variant": "RDIDFKNRRGGPPFAFVEFEDPRD", "note": "[L5F]", "protein stability index": 3.35}
{"variant": "RDIDVKNRRGGPPFAFVEFEDPRD", "note": "[L5V]", "protein stability index": 3.94}
{"variant": "RDIDRKNRRGGPPFAFVEFEDPRD", "note": "[L5R]", "protein stability index": 3.35}
{"variant": "RDIDGKNRRGGPPFAFVEFEDPRD", "note": "[L5G]", "protein stability index": 3.74}
{"variant": "RDIDSKNRRGGPPFAFVEFEDPRD", "note": "[L5S]", "protein stability index": 4.06}
{"variant": "RDIDQKNRRGGPPFAFVEFEDPRD", "note": "[L5Q]", "protein stability index": 4.13}
{"variant": "RDIDAKNRRGGPPFAFVEFEDPRD", "note": "[L5A]", "protein stability index": 4.09}
{"variant": "RDIDHKNRRGGPPFAFVEFEDPRD", "note": "[L5H]", "protein stability index": 3.59}
{"variant": "RDIDYKNRRGGPPFAFVEFEDPRD", "note": "[L5Y]", "protein stability index": 3.3}
{"variant": "RDIDPKNRRGGPPFAFVEFEDPRD", "note": "[L5P]", "protein stability index": 3.68}
{"variant": "RDIDMKNRRGGPPFAFVEFEDPRD", "note": "[L5M]", "protein stability index": 3.93}
{"variant": "RDIDKKNRRGGPPFAFVEFEDPRD", "note": "[L5K]", "protein stability index": 3.81}
{"variant": "RDIDEKNRRGGPPFAFVEFEDPRD", "note": "[L5E]", "protein stability index": 4.49}
{"variant": "RDIDIKNRRGGPPFAFVEFEDPRD", "note": "[L5I]", "protein stability index": 3.67}
{"variant": "RDIDDKNRRGGPPFAFVEFEDPRD", "note": "[L5D]", "protein stability index": 4.49}
{"variant": "RDIELKNRRGGPPFAFVEFEDPRD", "note": "[D4E]", "protein stability index": 3.61}
{"variant": "RDIQLKNRRGGPPFAFVEFEDPRD", "note": "[D4Q]", "protein stability index": 3.57}
{"variant": "RDIKLKNRRGGPPFAFVEFEDPRD", "note": "[D4K]", "protein stability index": 3.47}
{"variant": "RDICLKNRRGGPPFAFVEFEDPRD", "note": "[D4C]", "protein stability index": 3.33}
{"variant": "RDIVLKNRRGGPPFAFVEFEDPRD", "note": "[D4V]", "protein stability index": 2.85}
{"variant": "RDIILKNRRGGPPFAFVEFEDPRD", "note": "[D4I]", "protein stability index": 3.17}
{"variant": "RDIGLKNRRGGPPFAFVEFEDPRD", "note": "[D4G]", "protein stability index": 3.34}
{"variant": "RDIFLKNRRGGPPFAFVEFEDPRD", "note": "[D4F]", "protein stability index": 2.81}
{"variant": "RDIPLKNRRGGPPFAFVEFEDPRD", "note": "[D4P]", "protein stability index": 3.08}
{"variant": "RDIRLKNRRGGPPFAFVEFEDPRD", "note": "[D4R]", "protein stability index": 3.45}
{"variant": "RDIHLKNRRGGPPFAFVEFEDPRD", "note": "[D4H]", "protein stability index": 3.25}
{"variant": "RDINLKNRRGGPPFAFVEFEDPRD", "note": "[D4N]", "protein stability index": 3.61}
{"variant": "RDIALKNRRGGPPFAFVEFEDPRD", "note": "[D4A]", "protein stability index": 3.11}
{"variant": "RDISLKNRRGGPPFAFVEFEDPRD", "note": "[D4S]", "protein stability index": 3.83}
{"variant": "RDIWLKNRRGGPPFAFVEFEDPRD", "note": "[D4W]", "protein stability index": 2.35}
{"variant": "RDIYLKNRRGGPPFAFVEFEDPRD", "note": "[D4Y]", "protein stability index": 2.92}
{"variant": "RDILLKNRRGGPPFAFVEFEDPRD", "note": "[D4L]", "protein stability index": 3.42}
{"variant": "RDIMLKNRRGGPPFAFVEFEDPRD", "note": "[D4M]", "protein stability index": 3.4}
{"variant": "RDITLKNRRGGPPFAFVEFEDPRD", "note": "[D4T]", "protein stability index": 3.28}
